Data set [1] concerns HeLa Kyoto. Description: melting temperature (median over replicates), in situ; higher = more thermally stable.
Data set [2] deals with HeLa Kyoto. Nature of the data set: solubility in G1/S (NP-40 vs SDS abundance) (log2 ratio); higher = more soluble. The settings on record: cell cycle stage: G1/S.
Data set [3] relates to HeLa Kyoto. Nature of the data set: solubility change mitosis vs G1/S (difference of NP-40 vs SDS log2 ratios) (log2 ratio difference); higher = more soluble in mitosis.
In data set [4] the test system is HeLa Kyoto. Nature of the data set: thermal stability score vs G1/S (z-score of summed log2 fold changes over temperatures); higher = more thermally stable than in G1/S.
The mark [5] stands for this setting: cell cycle stage: early G1 (4.5 h after nocodazole release).
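Throughout, for melting temperature (median over replicates), in situ: HeLa Kyoto cells synchronized by double thymidine or nocodazole block, proteins quantified by TMT10plex mass spectrometry, three independent biological replicates.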
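Throughout, for solubility change mitosis vs G1/S (difference of NP-40 vs SDS log2 ratios): synchronized HeLa Kyoto cells (double thymidine block for G1/S, nocodazole release for mitosis), protein amounts in NP-40 versus SDS lysates quantified by mass spectrometry, three biological replicates.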
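Throughout, for solubility in G1/S (NP-40 vs SDS abundance): HeLa Kyoto cells arrested at G1/S by double thymidine block, proteins quantified by TMT10plex mass spectrometry in mild NP-40 versus SDS extracts, three biological replicates.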
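Throughout, for thermal stability score vs G1/S (z-score of summed log2 fold changes over temperatures): synchronized HeLa Kyoto cells, proteins quantified by TMT10plex mass spectrometry, three biological replicates, mitosis taken 0.5 h after nocodazole release, G1/S directly after double thymidine block.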

In the data set on HeLa Kyoto [1] (cell cycle stage: mitosis), “MIGCGACEPKVKMAGGQAAAALPTWKMAARRSLSARGRGILQAAAGRLLPLLLLSCCCGAGGCAAVGENEETVIIGLRLEDTNDVSFMEGGALRVSERTRVKLRVYGQNINNETWSRIAFTEHERRRHSPGERGLGGPAPPEPDSGPQRCGIRTSDIIILPHIILNRRTSGIIEIEIKPLRKMEKSKSYYLCTSLSTPALGAGGSGSTGGAVGGKGGSGVAGLPPPPWAETTWIYHDGEDTKMIVGEEKKFLLPFWLQVIFISLLLCLSGMFSGLNLGLMALDPMELRIVQNCGTEKEKNYAKRIEPVRRQGNYLLCSLLLGNVLVNTTLTILLDDIAGSGLVAVVVSTIGIVIFGEIVPQAICSRHGLAVGANTIFLTKFFMMMTFPASYPVSKLLDCVLGQEIGTVYNREKLLEMLRVTDPYNDLVKEELNIIQGALELRTKTVEDVMTPLRDCFMITGEAILDFNTMSEIMESGYTRIPVFEGERSNIVDLLFVKDLAFVDPDDCTPLKTITKFYNHPLHFVFNDTKLDAMLEEFKKGKSHLAIVQRVNNEGEGDPFYEVLGIVTLEDVIEEIIKSEILDETDLYTDNRTKKKVAHRERKQDFSAFKQTDSEMKVKISPQLLLAMHRFLATEVEAFSPSQMSEKILLRLLKHPNVIQELKYDEKNKKAPEYYLYQRNKPVDYFVLILQGKVEVEAGKEGMKFEASAFSYYGVMALTASPVPLSLSRTFVVSRTELLAAGSPGENKSPPRPCGLNHSDSLSRSDRIDAVTPTLGSSNNQLNSSLLQVYIPDYSVRALSDLQFVKISRQQYQNALMASRMDKTPQSSDSENTKIELTLTELHDGLPDETANLLNEQNCVTHSKANHSLHNEGAI [CNNM2]” returned a melting temperature of 51.1 °C. Also, the “solubility in G1/S (log2)” value in the data set on HeLa Kyoto [2] is -0.386. For the same sequence, the “solubility change mitosis (log2)” value with HeLa Kyoto [3] amounted to 0.346. The thermal stability score with HeLa Kyoto [4] (setting [5]) was -1.21; with HeLa Kyoto [4] (cell cycle stage: mitosis) it was -1.62.
Consider “MIGGLFIYNHKGEVLISRVYRDDIGRNAVDAFRVNVIHARQQVRSPVTNIARTSFFHVKRSNIWLAAVTKQNVNAAMVFEFLYKMCDVMAAYFGKISEENIKNNFVLIYELLDEILDFGYPQNSETGALKTFITQQGIKSQHQTKEEQSQITSQVTGQIGWRREGIKYRRNELFLDVLESVNLLMSPQGQVLSAHVSGRVVMKSYLSGMPECKFGMNDKIVIEKQGKGTADETSKSGKQSIAIDDCTFHQCVRLSKFDSERSISFIPPDGEFELMRYRTTKDIILPFRVIPLVREVGRTKLEVKVVIKSNFKPSLLAQKIEVRIPTPLNTSGVQVICMKGKAKYKASENAIVWKIKRMAGMKESQISAEIELLPTNDKKKWARPPISMNFEVPFAPSGLKVRYLKVFEPKLNYSDHDVIKWVRYIGRSGIYETRC [AP2M1]”, for which the melting temperature stood at 52.3 °C in the data set on HeLa Kyoto [1] (cell cycle stage: G1/S) and 51.6 °C in the data set with HeLa Kyoto [1] (cell cycle stage: mitosis). In addition, the “solubility in G1/S (log2)” value in the data set on HeLa Kyoto [2] was -0.387. Moreover, the “solubility change mitosis (log2)” value in the data set with HeLa Kyoto [3] stood at 0.00223. Besides, the thermal stability score with HeLa Kyoto [4] (setting [5]) is -2.25; in the data set on HeLa Kyoto [4] (cell cycle stage: mitosis) it was -0.263.
With “MIHSLFLINCSGDIFLEKHWKSVVSQSVCDYFFEAQEKAADVENVPPVISTPHHYLISIYRDKLFFVSVIQTEVPPLFVIEFLHRVADTFQDYFGECSEAAIKDNVVIVYELLEEMLDNGFPLATESNILKELIKPPTILRSVVNSITGSSNVGDTLPTGQLSNIPWRRAGVKYTNNEAYFDVVEEIDAIIDKSGSTVFAEIQGVIDACIKLSGMPDLSLSFMNPRLLDDVSFHPCIRFKRWESERVLSFIPPDGNFRLISYRVSSQNLVAIPVYVKHSISFKENSSCGRFDITIGPKQNMGKTIEGITVTVHMPKVVLNMNLTPTQGSYTFDPVTKVLTWDVGKITPQKLPSLKGLVNLQSGAPKPEENPSLNIQFKIQQLAISGLKVNRLDMYGEKYKPFKGVKYVTKAGKFQVRT [AP3M1]”, the values for the melting temperature in the data set with HeLa Kyoto [1] (cell cycle stage: G1/S) and with HeLa Kyoto [1] (cell cycle stage: mitosis) were 50.8 °C and 50.1 °C, respectively. In the data set with HeLa Kyoto [2], the “solubility in G1/S (log2)” value was -0.0152. The “solubility change mitosis (log2)” value in the data set on HeLa Kyoto [3] is -0.0783. The thermal stability score in the data set with HeLa Kyoto [4] (setting [5]) was 0.811; in the data set on HeLa Kyoto [4] (cell cycle stage: mitosis) it was 0.722.

(Values after the supplement of paper PMC5998384.)
